Kd, koff and kon data for 1 molecule are collected here from patent US20250243262A1.

The target of assay [1] is rPcrV protein (recombinant Pseudomonas PcrV) (Pseudomonas aeruginosa). Briefly: SPR (Bio-Rad ProteOn XPR36); antibody captured, rPcrV as analyte; table under the sensorgram.
For assay [2] the target is unchanged. Briefly: SPR (Bio-Rad ProteOn XPR36); antibody captured on GLC sensor chip with anti-human IgG, rPcrV injected at multiple concentrations.

B1: V2L2-GL (V2L2-germlined mAb) (antibody, V domains shown)
VH: EVQLLESGGGLVQPGGSLRLSCAASGFTFSSYAMNWVRQAPGKGLEWVSAITISGITAYYTDSVKGRFTISRDNSKNTLYLQMNSLRAEDTAVYYCAKEEFLPGTHYYYGMDVWGQGTTVTVSS
VL: AIQMTQSPSSLSASVGDRVTITCRASQGIRNDLGWYQQKPGKAPKLVIYSASTLQSGVPSRFSGSGSGTDFTLSISSLQPDDFATYYCLQDYNYPWTFGQGTKVEIK
On to B1, for which, in assay [1], the Kd (in general, the equilibrium constant for the complex coming apart) was determined as 143 pM; the koff (commonly the first-order rate constant of dissociation) amounted to 0.000116 s⁻¹; the kon (in general, a measure of how fast the partners come together) stood at 808000 M⁻¹ s⁻¹. Also, in assay [2], the Kd was found to be 143 pM, the koff came out at 0.000116 s⁻¹ and the association rate constant (kon) was 808000 M⁻¹ s⁻¹.
